Experimental data taken from patent US20180153986A1 (BRIGHAM AND WOMEN S HOSPITAL, published 2018).

Molecular target: T1, human CEACAM1 (carcinoembryonic antigen related cell adhesion molecule 1) (human, UniProt P13688 35-526, limits assumed)
T1 construct: also called hCEACAM1; BGP
T1 sequence: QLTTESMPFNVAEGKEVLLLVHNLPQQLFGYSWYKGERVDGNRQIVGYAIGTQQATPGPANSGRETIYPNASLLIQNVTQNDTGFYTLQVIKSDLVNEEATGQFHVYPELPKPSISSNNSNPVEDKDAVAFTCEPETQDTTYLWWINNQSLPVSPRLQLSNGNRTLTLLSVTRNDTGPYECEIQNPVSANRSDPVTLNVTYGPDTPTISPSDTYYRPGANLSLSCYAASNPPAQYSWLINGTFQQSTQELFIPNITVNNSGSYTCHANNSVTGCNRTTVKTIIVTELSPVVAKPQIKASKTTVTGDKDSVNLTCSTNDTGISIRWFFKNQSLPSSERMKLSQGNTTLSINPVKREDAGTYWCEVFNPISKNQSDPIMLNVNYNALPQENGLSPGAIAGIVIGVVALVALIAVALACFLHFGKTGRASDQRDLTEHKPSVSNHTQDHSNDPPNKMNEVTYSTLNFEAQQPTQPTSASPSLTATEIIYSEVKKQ
Experiment: method not described ('as demonstrated herein'); support is structural prediction and co-expression

binding result: binds
B1: human TIM-1 (T-cell immunoglobulin and mucin domain-containing protein 1) (receptor)
chain: SVKVGGEAGPSVTLPCHYSGAVTSMCWNRGSCSLFTCQNGIVWTNGTHVTYRKDTRYKLLGDLSRRDVSLTIENTAVSDSGVYCCRVEHRGWFNDMKITVSLEIVPPKVTTTPIVTTVPTVTTVRTSTTVPTTTTVPTTTVPTTMSIPTTTTVLTTMTVSTTTSVPTTTSIPTTTSVPVTTTVSTFVPPMPLPRQNHEPVATSPSSPQPAETHPTTLQGAIRREPTSSPLYSYTTDGNDTVTESSDGLWNNNQTQLFLEHSLLTANTTKGIYAGVCISVLVLLALLGVIIAKKYFFKKEVQQLSVSFSSLQIKALQNAVEKEVQAEDNIYIENSLYATD
notes: also called HAVCR; HAVCR-1
